According to patent US20240199731A1 (published 2024):

Biological target: T1, Recombinant human IL-17A (Peprotech, cat #AF-200-17) (human, UniProt Q16552 24-155)
T1 construct: Bought protein
Assay: SPR (BIAcore T200), IL-17A coupled to CM5 chip, VH as analyte, single-cycle kinetics
Protocol: VH binding kinetics were then determined from the (blank subtracted) sensorgram traces using 1:1 binding models and BIAevaluation software.

T1 sequence (Q16552 24-155): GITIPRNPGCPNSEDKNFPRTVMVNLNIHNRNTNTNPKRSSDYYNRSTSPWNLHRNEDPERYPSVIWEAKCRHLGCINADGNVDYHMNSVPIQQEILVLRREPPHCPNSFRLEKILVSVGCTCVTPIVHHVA

- Kd: 1.5 nM
B1: Clone 1.17 (VHH)
VHH: EVQLVESGGGLVQPGGSLRLSCAASGFTFSSYSMYWVRQAPGKGLEWVAEIKPTGSVQYYVSDVKGRFTISRDNAKNSLYLQMNSLRAEDTAVYYCAKGEILPLYFDYWGQGTLVTVSS
notes: Human single VH domain; also called VH 1.17.1
